Reference: patent US20040038887A1 (Harvard, published 2004)
No end group written: not given here.

T1: Recombinant water-soluble HLA-DR-2 molecules (DRB1*1501) (human)
T1 chain 1: not shown
T1 chain 2: not shown


What was measured:
[1] = target: T2, Recombinant water-soluble HLA-DR-2 molecules (DRB1*1501) (human, UniProt P01903 26-216; P01911 30-227, limits assumed); test: competition ELISA, unlabeled inhibitor against biotinylated MBP 86-100 on soluble HLA-DR-2 (LB3.1 capture, streptavidin-AP)
T2 construct: Expressed in Drosophila S2 cells and purified on a Protein A-LB3.1 column 'as described (Kalandadze et al. 1996)'; also called HLA DR-2 (DRB1*1501); purified HLA-DR-2

[2] = target: T1, Recombinant water-soluble HLA-DR-2 …; test: ELISA, biotinylated MBP 86-100 (0.13 uM) on soluble HLA-DR-2, no competitor; background 0.1

Binder	binding result [1]	signal at 410 nm without competitor (absorbance at 410 nm) [2]
ENPVVHFFKNIVTPR (also called unlabeled MBP 85-99 peptide; synthetic unlabeled peptide control MBP 85-99) [MBP 85-99 (SEQ ID NO: 2), unlabeled]	binds	
SGSGNPVVHFFKNIVTPRT (not fully specified) [Biotinylated MBP 86-100 (SEQ ID NO: 1)]		0.8 to 0.9
